Columns and labels:
[1] = target: the molecule itself; test: SEC; Superdex 75 pg 16/600, 20 mM HEPES, 150 mM NaCl, 5% glycerol, pH 7.4; SMS dimers at Ve ~70 mL
[2] = target: T1, MyoVa-GTD, wild type (globular tail domain of myosin Va) (human, UniProt Q9Y4I1 1448-1855); test: MST; Monolith NT.115, LED power 40%, MST power 60%; 50 nM His-tagged SMS labelled with RED-tris-NTA, serial dilution of MyoVa-GTD; 20 mM HEPES, 150 mM NaCl, 5% glycerol, pH 7.4; triplicate; Hill fit; settings: both partners purified
T1 construct: Myosin Va, human, wild-type globular tail domain; limits are printed only for the EE two-hybrid construct (1448-1855 of NP_000250.3); In pET28a-TEV; Limits probably 1448-1855 as for the EE construct; also called TEV-treated MyoVa-GTD; source: E. coli BL21(DE3)∆SlyD pRARE2, purified (HiTrap Chelating, TEV cleavage, Superdex 200)
T1 sequence (Q9Y4I1 1448-1855): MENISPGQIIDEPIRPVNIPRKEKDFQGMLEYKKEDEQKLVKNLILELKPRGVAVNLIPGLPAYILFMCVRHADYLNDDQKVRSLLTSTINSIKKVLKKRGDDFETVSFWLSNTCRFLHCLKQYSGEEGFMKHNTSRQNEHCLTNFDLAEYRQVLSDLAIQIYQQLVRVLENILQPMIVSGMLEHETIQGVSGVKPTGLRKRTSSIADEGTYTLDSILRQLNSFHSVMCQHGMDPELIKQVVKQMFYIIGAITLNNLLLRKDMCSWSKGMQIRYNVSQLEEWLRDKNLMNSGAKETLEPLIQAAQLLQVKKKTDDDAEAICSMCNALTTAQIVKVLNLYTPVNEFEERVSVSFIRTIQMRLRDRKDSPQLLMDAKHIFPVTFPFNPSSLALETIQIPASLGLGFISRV

B1: Spermine synthase (SMS), full length, His-tagged (enzyme, human, UniProt P52788-1 1-366, looked up)
chain: MAAARHSTLDFMLGAKADGETILKGLQSIFQEQGMAESVHTWQDHGYLATYTNKNGSFANLRIYPHGLVLLDLQSYDGDAQGKEEIDSILNKVEERMKELSQDSTGRVKRLPPIVRGGAIDRYWPTADGRLVEYDIDEVVYDEDSPYQNIKILHSKQFGNILILSGDVNLAESDLAYTRAIMGSGKEDYTGKDVLILGGGDGGILCEIVKLKPKMVTMVEIDQMVIDGCKKYMRKTCGDVLDNLKGDCYQVLIEDCIPVLKRYAKEGREFDYVINDLTAVPISTSPEEDSTWEFLRLILDLSMKVLKQDGKYFTQGNCVNLTEALSLYEEQLGRLYCPVEFSKEIVCVPSYLELWVFYTVWKKAKP
modifications: RED-tris-NTA dye label on the His-tag (in the MST assay)
notes: Spermine synthase, human, full-length ORF (NM_004595.4, 253-1353 pb) amplified from a human cDNA library; In pET28a-TEV; the fractions with SMS dimers were used in MST; also called 6xHis-SMS; His-tagged-labeled-SMS; source: E. coli BL21(DE3)∆SlyD pRARE2, purified (HiTrap Chelating, Superdex 75)
With B1 the “stoichiometry N” value [1] was 2 and the Kd [2] was 3.5 ± 0.5 µM.

Reference: article PMC6395372, “Myosin Va interacts with the exosomal protein spermine synthase” (Bioscience Reports, 2019)
